In patent US5348941A, “Stabilizers for fibroblast growth factors” (Merck & Co., Inc., priority 1992, dated 1994):

What was measured:
Assay type in all cases: biochemical
aFGF [1] = target: T1, aFGF (Homo sapiens, UniProt P05230); experiment: Thermal denaturation (Tm) of aFGF by circular dichroism; details: buffer alone
T1 construct: The recombinant derived, 140 amino add form is the preferred form of aFGF; N-terminal methionine (MetHaFGF); made in house; host or cells: microbial cells (preferred embodiment)
T1 sequence (P05230 16-155 limits assumed): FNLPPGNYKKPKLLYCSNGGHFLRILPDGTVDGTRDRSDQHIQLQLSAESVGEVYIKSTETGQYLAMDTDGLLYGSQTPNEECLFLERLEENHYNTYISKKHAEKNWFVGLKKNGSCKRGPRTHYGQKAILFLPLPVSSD
Method: Circular Dichroism (CD) spectra are measured with an AVIV 62 DS spectropolarimeter. Samples of aFGF at about 100 μg/ml in a PBS buffer (6 mM sodium phosphate, 120 mM NaCl, pH 7.2) containing various ligands are placed into 1 mm pathlength cells and the cell temperature is controlled by circulating a water/ethylene glycol mixture through the cell holder. Thermal denaturation is carded out under computer control by increasing the temperature of the water bath in 2° C. increments, followed by a two-minute equilibration period at each temperature to allow the sample to reach thermal equilibrium. Reproducibility of the midpoint of these temperature melting curves (Tm) is ±2° C.
The maximum Tm values induced by 12 different ligands as determined by circular dichroism measurements at 228 nm are summarized in the first column of Table II. All of these ligands stabilize aFGF by 15°-25° C. in a manner similar to that originally observed with heparin. […] Furthermore, sulfate unions are found near analogous residues in the crystal structure of basic FGF, Eriksson et al., Proc. Natl. Acad. Sd. USA 88:3441-3445 (1991); Zhang et al., Proc. Natl. Acad. Sci. USA 88:3446-3450 (1991). Consequently, it seemed important to examine the ability of these ligands to stabilize aFGF during thermal denaturation as monitored by both fluorescence and circular dichroism. The Tm value of aFGF increased from 27° C. to 43° C. (fluorescence)and 45° C. to 51° C. (CD) when a 100 molar excess (3X by weight) of (IrCl6)^-3 was present. Similarly, sulfate union (120 mM) produced a species that was even more dramatically stabilized, melting at 57° C. (CD).
^(a) Thermal melting temperatures were measured by circular dichroism
Samples contained […] aFGF in PBS buffer pH 7.2 with excess ligand
(1-3× by weight except for 120 mM sodium sulfate and 10 mM

aFGF [2] = target: T1, aFGF; experiment: Copper-catalyzed oxidation of aFGF thiol groups; details: 6 M GuHCl, 10 minutes, 1 μM CuCl2, 5 μM aFGF
aFGF [3] = target: T1, aFGF; experiment: Thermal denaturation (Tm) of aFGF by fluorescence spectroscopy; details: no heparin, PBS pH 7.2
Method: Fluorescence spectra are obtained with a Spex Fluorolog-2 spectrofiuorometer using a 1 mm pathlength cuvette. Band passes from 1-2 nm are employed with sample absorptivities maintained below 0.1 at 280 nm. The temperature is controlled either manually or automatically as described above. Reproducibility of thermal denaturation temperatures (Tm) is ± 2° C.
To more directly ascertain the effect of heparin on aFGF stability, the temperature-induced denaturation of aFGF as a function of heparin concentration was monitored by fluorescence spectroscopy. Fluorescence spectra were obtained with a Spex Fluorolog-2 spectrofiuorometer using a 1 mm pathlength cuvette. Band passes from 1-2 nm were employed with sample absorptivities maintained below 0.1 at 280 nm. The temperature was controlled either manually or automatically as described above. Reproducibility of thermal denaturation temperatures (Tm) was ±2° C. […] Experiments were carried out at 100 μg/ml protein (6.3 μM) in a PBS buffer at pH 7.2. Curve drawn through data points for clarity only.
Studies of the stabilization of aFGF by heparin are difficult to interpret because of the inherent heterogeneity of heparin preparations, Lane and Lindahl, Eds. Heparin, Chemical and Biological Properties, Clinical Applications, Edward Arnold, London (1989); Jackson, et al., Physiol. Rev. 71: 481-539 (1991). In order to better understand the polyanionic stabilization of aFGF, a series of well-defined fragments of heparin were examined for their ability to stabilize aFGF against thermal denaturation. These enzymatically prepared and purified fragments varied in size from a disaccharide to a decasaccharide. Each fragment was incubated with aFGF at a 1:1 weight ratio in a PBS buffer. The sample was then stressed by temperature and structural changes in aFGF were monitored by both circular dichroism and fluorescence spectroscopy. […] All samples contained 100 μg/ml aFGF (6.3 μM)in a PBS buffer (pH 7.2) with 100 μg/ml of each heparin fragment.
Since these fragments of heparin have a well-defined molecular weight, the molar ratio of aFGF to ligand during these thermal denaturation experiments can be calculated. The Tm of aFGF as a function of the molar concentration of the hexasaccharide was measured by fluorescence spectroscopy. Fluorescence spectra were obtained with a Spex Fluorolog-2 spectrofiuorometer using a 1mm pathlength cuvette. Band passes from 1-2 nm were employed with sample absorptivities maintained below 0.1 at 280 nm. The temperature was controlled either manually or automatically as described above. Reproducibility of thermal denaturation temperatures (Tm) was ±2° C.
Analogous to the heparin experiments illustrated in Example 1 (FIG. 3), aFGF thermal stability was monitored by fluorescence spectroscopy as a function of concentration for several other of the polyanions. […] All samples contained 100 μg/ml of aFGF (6.3 μM) in a PBS buffer at pH 7.2.

aFGF [4] = target: T1, aFGF; experiment: Copper-catalyzed oxidation of aFGF thiol groups
Method: Copper-catalyzed oxidation of aFGF is carried out in the following manner. Acidic FGF (about 80 μg/ml) is incubated in a 20 mM Tris, 0.15M potassium chloride, pH 8 solution containing about 20 μM cuptic chloride for varying periods of time at room temperature. The reaction was terminated by the addition of 100 mM EDTA in the same buffer. A solution of about 0.7 ml of 0.25M Tris (about pH 8) containing about 2 mM EDTA and about 7 M GuHC1 is then added followed by about 35 μl of 4 mg/ml of DTNB (Sigma). Samples were incubated for 30 minutes, filtered through a 0.22 micron filter and the optical density measured at about 412 nm to determine sulfhydryl content, Riddles et al., Meth. Enzymol. 9:49-60 (1983). Relative standard deviation of the obtained values during time course experiments is 12%.
Acidic FGF contains three free cysteine residues at positions […], 83 and 117 in the polypeptide chain. […] It has also been shown that the copper catalyzed oxidative formation of a disulfide bond in the wild-type aFGF inactivates the protein in an in vitro mitogenic assay, Ortega et al., J. Biol. Chem. 266:5842-5846 (1991). Therefore, it was of interest to determine the extent to which heparin can stabilize aFGF against inactivation by oxidation. […] Samples contained 80 μg/ml aFGF with (a) 3X heparin by weight, (b) 0.1X heparin by weight and (c) buffer alone. As heparin was introduced and its concentration increased, the rate of copper-catalyzed oxidation decreased. For example, after 20 minutes, greater than 95% of the cysteine residues of aFGF are protected from oxidation with 3X heparin. FIG. 4B illustrates the fraction of remaining reactive thiol groups after a 10-minute incubation with cupric chloride as a function of heparin concentration.
Some aggregation of aFGF occurs under the conditions of these experiments presumably due to at least partial intermolecular disulfide formation. Thus, these measurements could simply be a measurement of the loss of solubility induced by copper association with aFGF. Several experiments, however, argue against this possibility. First, previous work has shown that at dilute protein concentration, copper does indeed catalyze oxidation of thiol groups of aFGF, Ortega et al., J. Biol. Chem. 266:5842-5846 (199 1 ). Second, as a control experiment, the copper-catalyzed oxidation of aFGF was carded out in a buffer containing 6 M GuHCl. Under these denaturing conditions, nearly 100% of the thiol groups in solution were lost after 10 minutes without visible aggregation. […] Regardless of the precise mechanism, copper addition is a distinct mechanism of inactivation compared to thermal stress.
Similar protection against oxidation experiments were carried out with other negatively charged compounds with an excess of ligand (3X by weight except for sodium sulfate at 120 mM and tetrapolyphosphate at 10 mM) added to aFGF before copper catalyzed oxidation. As shown in the second column of Table 2, all of these agents at least partially protect the cysteine residues of aFGF from oxidation.
^(b) Percentage of aFGF thiols remaining in solution after 10 min
incubation with cupric chloride. Experimental conditions are described in
FIG. 10. All samples contained ligand at 3× (by weight) except
sodium sulfate (120 mM) and tetrapolyphosphate (10 mM).

In the case of “aFGF: human acidic fibroblast growth factor, molecular mass of about 15.9 kDa”, the “Tm of aFGF, circular dichroism” value (aFGF [1]) is reported as 45 °C, the “loss of thiol groups of aFGF” value (aFGF [2]) is reported as 10% and the “thermal denaturation temperature (Tm) of aFGF, fluorescence” value (aFGF [3]) is reported as 27 °C. The “thermal denaturation temperature (Tm) of aFGF, fluorescence” value (aFGF [3]; listed as native aFGF) was less than 30 °C, the “thiol groups of aFGF lost” value (aFGF [4]; 6 M GuHCl, 10 minutes) was roughly 100% and the “free thiols of aFGF lost” value (aFGF [4]; 10-minute incubation, absence of polyanions) was 60%. The “total thiol groups of aFGF reacted” value (aFGF [4]; buffer alone, after 6 hours, cupric chloride) was 70-75% and the “thiol groups of aFGF oxidized” value (aFGF [4]; buffer alone, within several minutes, cupric chloride) was 50-60%.
